The text below walks through data of US20240000885A1 (VANDERBILT UNIVERSITY, published 2024).

Experiment [1] concerns the target MHV M tail with truncation of 40 carboxyl-terminal amino acids (mouse hepatitis coronavirus strain A59, UniProt P04386 1-147). Put plainly: binary yeast 2-hybrid.
Experiment [2] concerns the target MHV M cytoplasmic tail (amino acids 105-228), GAL4-BD fusion (mouse hepatitis coronavirus strain A59, UniProt P04386 1-147). Description: binary yeast 2-hybrid.

B1: pAD-MYO5B(ABCDE) (other)
chain: GSPDSYSLLLNQLKLAHEELEVRKEEVLILRTQIVSADQRRLAGRNAEPNINARSSWPNSEKHVDQEDAIEAYHGVCQTNSKTEDWGYLNEDGELGLAYQGLKQVARLLEAQLQAQSLEHEEEVEHLKAQLEALKEEMDKQQQTFCQTLLLSPEAQVEFGVQQEISRLTNENLDLKELVEKLEKNERKLKKQLKIYMKKAQDLEA
notes: also called MYO5B ABCDE exons; construct containing just the ABCDE exons
For B1, in experiment [1], the binding result is “no binding”.

B2: pAD-MYO5B(ABCE) (other)
chain: GSPDSYSLLLNQLKLAHEELEVRKEEVLILRTQIVSADQRRLAGRNAEPNINARSSWPNSEKHVDQEDAIEAYHGVCQTNRLLEAQLQAQSLEHEEEVEHLKAQLEALKEEMDKQQQTFCQTLLLSPEAQVEFGVQQEISRLTNENLDLKELVEKLEKNERKLKKQLKIYMKKAQDLEA
With B2, the binding result in experiment [2] is given as “no binding”.
